Laboratory results from patent publication US20250346663A1 (published 2025).

Experiments:
Gen2 leptin = experiment: BLI; sample PP5871-021
[1] = target: mbp_G4S_hlep(22-167)V94M (MBP-(G4S)-human leptin V94M-6His); experiment: BLI; sample PP2054-095

| Binder | Kd (Gen2 leptin) | Kd [1] |
| --- | --- | --- |
| human leptin receptor (Fc-tagged dimeric) (Fc fusion) FNLSYPITPWRFKLSCMPPNSTYDYFLLPAGLSKNTSNSNGHYETAVEPKFNSSGTHFSNLSKTTFHCCFRSEQDRNCSLCADNIEGKTFVSTVNSLVFQQIDANWNIQCWLKGDLKLFICYVESLFKNLFRNYNYKVHLLYVLPEVLEDSPLVPQKGSFQMVHCNCSVHECCECLVPVPTAKLNDTLLMCLKITSGGVIFQSPLMSVQPINMVKPDPPLGLHMEITDDGNLKISWSSPPLVPFPLQYQVKYSENSTTVIREADKIVSATSLLVDSILPGSSYEVQVRGKRLDGPGIWSDWSTPRVFTTQDVIYFPPKILTSVGSNVSFHCIYKKENKIVPSKEIVWWMNLAEKIPQSQYDVVSDHVSKVTFFNLNETKPRGKFTYDAVYCCNEHECHHRYAELYVIDVNINISCETDGYLTKMTCRWSTSTIQSLAESTLQLRYHRSSLYCSDIPSIHPISEPKDCYLQSDGFYECIFQPIFLLSGYTMWIRINHSLGSLDSPPTCVLPDSVVKPLPPSSVKAEITINIGLLKISWEKPVFPENNLQFQIRYGLSGKEVQWKMYEVYDAKSKSVSLPVPDLCAVYAVQVRCKRLDGLGYWSNWSNPAYTVVMDIKVPMRGPEFWRIINGDTMKKEKNVTLLWKPLMKNDSLCSVQRYVINHHTSCNGTWSEDVGNHTKFTFLWTEQAHTVTVLAINSIGASVANFNLTFSWPMSKVNIVQSLSAYPLNSSCVIVSWILSPSDYKLMYFIIEWKNLNEDGEIKWLRISSSVKKYYIHDHFIPIEKYQFSLYPIFMEGVGKPKIINSFTQDDIEKHQSD | 1.41 nM |  |
| human FC-tagged dimeric leptin receptor (Fc fusion) FNLSYPITPWRFKLSCMPPNSTYDYFLLPAGLSKNTSNSNGHYETAVEPKFNSSGTHFSNLSKTTFHCCFRSEQDRNCSLCADNIEGKTFVSTVNSLVFQQIDANWNIQCWLKGDLKLFICYVESLFKNLFRNYNYKVHLLYVLPEVLEDSPLVPQKGSFQMVHCNCSVHECCECLVPVPTAKLNDTLLMCLKITSGGVIFQSPLMSVQPINMVKPDPPLGLHMEITDDGNLKISWSSPPLVPFPLQYQVKYSENSTTVIREADKIVSATSLLVDSILPGSSYEVQVRGKRLDGPGIWSDWSTPRVFTTQDVIYFPPKILTSVGSNVSFHCIYKKENKIVPSKEIVWWMNLAEKIPQSQYDVVSDHVSKVTFFNLNETKPRGKFTYDAVYCCNEHECHHRYAELYVIDVNINISCETDGYLTKMTCRWSTSTIQSLAESTLQLRYHRSSLYCSDIPSIHPISEPKDCYLQSDGFYECIFQPIFLLSGYTMWIRINHSLGSLDSPPTCVLPDSVVKPLPPSSVKAEITINIGLLKISWEKPVFPENNLQFQIRYGLSGKEVQWKMYEVYDAKSKSVSLPVPDLCAVYAVQVRCKRLDGLGYWSNWSNPAYTVVMDIKVPMRGPEFWRIINGDTMKKEKNVTLLWKPLMKNDSLCSVQRYVINHHTSCNGTWSEDVGNHTKFTFLWTEQAHTVTVLAINSIGASVANFNLTFSWPMSKVNIVQSLSAYPLNSSCVIVSWILSPSDYKLMYFIIEWKNLNEDGEIKWLRISSSVKKYYIHDHFIPIEKYQFSLYPIFMEGVGKPKIINSFTQDDIEKHQSD |  | 0.93 nM |
